The nanobody polyreactivity screen of Harvey et al. (2022)

Experiment: yeast display, Sf9 membrane polyspecificity reagent, FACS + sequencing; frameworks hold sequencing errors
Outline: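 Polyreactivity labels are assigned by the sorting gate from which each nanobody was recovered. The gates were low and high (top ~1%), set on anti-HA fluorescence for expression and streptavidin fluorescence for reagent binding. Before sorting, galactose-induced (36–48 hours) yeast display cells were stained for 1 hour at 4 °C with 10% biotinylated, detergent-solubilized Sf9 membrane reagent.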

| Sequence | polyreactivity (PSR sort gate) |
| --- | --- |
| QVQLVESGGGLVQAGGSLRLSCAASGGTQVKYAMGWYRQAPGKERELVAAISRSTGNTYYADSVKGRFTISRDNAKNTVYLQMNSLKPEDTAVYYCAALKYTVGGKFGYWGQGTQVTVSS | high polyreactivity |
| QVQLVESGGGLVQAGGSLRLSCAASGGTRAHNAMGLYRQAPGKERELVAAISWRGGSTYYADSVKGRCTISRDNAKNTVYLQMNSLKPEDTAVYYCAKEQYVPDRPSFKNLNTYDYWGQGTQVTVSS | low polyreactivity |
| QVQLVESGGGLVQAGGSLRLSCAASGHIFYAYAMGWYRQAPGKERELVASITYRGVSTYYADSVKGRFTISRDNAKNTVYLQMNSLKPEDTAVYYCAAGRSRYLWFGRDFDYWGQGTQVTVSS | low polyreactivity |
| QVQLVESGGGLVQAGGSLRLSCAASGIFAYYAMGWYRQAPGKERELVAAISSSGGSTYYADSVKGRFTISRDNAKNTFYLQMNSLKPEDTAVYYCNVRNYYNDYYYWGQGTQVTVSS | high polyreactivity |
| QVQLVESGGGLVQAGGSLRLSCAASGIFDDNAMGWYRQAPGKEREFVAAITISDGTTYYADSVKGRFTISRDNAKNTVDLQMNSLKPEDTAVYYCAADATYFFVYPSVDWQPDIMGYWGQGTQVTVSS | low polyreactivity |
| QVQLVESGGGLVQAGGSLRLSCAASGIFDYYVMGWYRQAPGKERELVAAISKSDGSTYYADSVKGRFTISRDNAKNTVYLQMNSLKQEDTAVYYCNAKLYYNRMDYWGQGTQVTVSS | low polyreactivity |
| QVQLVESGGGLVQAGGSLRLSCAASGIFFHYAMGWYKQAPGKERELVAAISYSGGRTYYADSVKGRFTISRDNAKNTVYLQMNSLKPEDTAVYYCAARYYIGYGHRTYGYDYWGQGTQVTVSS | high polyreactivity |
| QVQLVESGGGLVQAGGSLRLSCAASGIFRKYAMGWYRQAPGTERELVAAITWGGGRTYYADSVKGRFTISRDNAKNTVYLQMNSLKPEDTAVYYCAAEYSLVPSYKVYYWGQGTQVTVSS | high polyreactivity |
| QVQLVESGGGLVQAGGSLRLSCAASGIFSNYAMGWYRQAPGKERELVAAIRSRSGTTYYADSVKGRFTISRDNAKNTVYLQLNSLKPEDTAVYYCDAGGKSRSYYWGQGTQVTVSS | high polyreactivity |
| QVQLVESGGGLVQAGGSLRLSCAASGIFSRYAMGWYRQAPGKERELVAAISSGDSTNYADSVKGRFTISRDNAKNTVYLQMNSLKPEDTAVYYCATERSHLATGQGYYYVQTFYYWGQGTQVTVSS | low polyreactivity |
| QVQLVESGGGLVQAGGSLRLSCAASGIFVVYAMGWYRQAPGKERELVAAISSGVSTTYADSVKGRFTISRDNAKNTVYLQMNSLKPEDTAVYYCNTLWGHQYIVPYRTREFYYWGQGTQVTVSS | low polyreactivity |
| QVQLVESGGGLVQAGGSLRLSCAASGIFWANGMGWYRQAPGKEREWVAAITSGGSTNYADSVKGRFTISRDNAKNTVYLQMNSLKPEDTAVYYCNKPWYSYRYGGVGYGYWGQGTQVTVSS | low polyreactivity |
| QVQLVESGGGLVQAGGSLRLSCAASGIFYRYAMGWYRQAPGKEREFVAAISSTGGSTYYADSVKGRFTISRDNAKNSVYLQMNSLKPEDTAVYYCAKRGSRSGRSDYWGQGTQVTVSS | low polyreactivity |
| QVQLVESGGGLVQAGGSLRLSCAASGIGCYRQAPGKERELVAAINWSGGNTYYADSVKGRFTISRDNAKNTVYLQMNSLKPEDTAVYYCNAVVWVEVPGDYWGQGTQVTVSS | low polyreactivity |
| QVQLVESGGGLVQAGGSLRLSCAASGIICGDNALGLYRQAPGKEWELVAAISSSGTSTNYADSVKGRFTISRDNAKNTVYLQMNSLKPEETAVYYCAKDVLPPYPQSRSGGDYWGQGTQVTVSS | low polyreactivity |
| QVQLVESGGGLVQAGGSLRLSCAASGIIFAANAMGWYRQAPGKERELVAAISKNGGITYYADSVKGRFTISRDTAKNTVYLQMNSLKPEDTAVYYCAARWRQTRRYYYWGQGTQVTVSS | high polyreactivity |
| QVQLVESGGGLVQAGGSLRLSCAASGIIFAAYVMGWYRQAPGKERELVAAISKSGGRTYYADSVKGRFTISRDNAKNTVYLQMNSLKPEDTAVYYCATDVRVGHIRDYDYWGQGTQVTVSS | high polyreactivity |
| QVQLVESGGGLVQAGGSLRLSCAASGIIFAFYAMGWYRQAPGKERELVAAISIDGSTYYADSVKGRFTISRDNAKNTVYLQMNSLKPEDTAVYYCAAEGNGYLVSTWWVRYEYWGQGTQVTVSS | low polyreactivity |
| QVQLVESGGGLVQAGGSLRLSCAASGIIFAHNAMGWYRQAPGKERELVAAISKRGGSTYYADSVKGRFTISRDNAKNTVYLQMNSLKPEDTAVYYCNKYSSYSFTYDSWGQGTQVTVSS | high polyreactivity |
| QVQLVESGGGLVQAGGSLRLSCAASGIIFAKYAMGWYRQAPGKERELVAAISRSGGSTYYADSVKGRFTISRDNAKNTVYLQMNSLKPEDTAVYYCAAAYYRDGGDFDYWGQGTQVTVSS | high polyreactivity |
| QVQLVESGGGLVQAGGSLRLSCAASGIIFAQYAMGWYRQAPGKERELVAAISWSGGSTYYADSVKGRFTISRDNAKNTVYLQMNSLKPEDTAVYYCAADGYYGYYSQYEYLYYYWGQGTQVTVSS | high polyreactivity |

| Sequence | polyreactivity (PSR sort gate) |
| --- | --- |
| QVQLVESGGGLVQAGGSLRLSCAASGIIFARNTMGWYRQAPGKERELVAAITSSGGNTYYADSVKGRFTISRDNAKNTVYLQKNSLKPEDTAVYYCAAYSRTLYPDRYYWGQGTQVTVSS | high polyreactivity |
| QVQLVESGGGLVQAGGSLRLSCAASGIIFARYAMGWYRQAPGKERELVAAITSGGGTSYADSVKGRFTISRDNAKNTVYLQMNSLKPEDTAVYYCNADGYLAERFVIRLDEYRDYDYWGQGTQVTVSS | low polyreactivity |
| QVQLVESGGGLVQAGGSLRLSCAASGIIFARYAMGWYRQAPGKERELVASINWTGGNTYADSVKGRFTISRDNAKNTVYLQMNSLKPEDTAVYYCARDFCPGSSDPKASISFDHWGQGTQVTVSS | low polyreactivity |
| QVQLVESGGGLVQAGGSLRLSCAASGIIFAWNTMGWSRHPPGKERELVAAISSSGGSTYYADSVKGRFTISRDNAKNTVYLQMNSLKPEDTAVYYCAADGYHWIHEYDYWGQGTQVTVSS | low polyreactivity |
| QVQLVESGGGLVQAGGSLRLSCAASGIIFAWYAMGWYRQAPGKERELVAAINWSGGSTYYADSVKGRFTISRDYAKNTVYLQMNSLKPEDTAVYYCARSSRGKLDYWGQGTQVTVSS | low polyreactivity |
| QVQLVESGGGLVQAGGSLRLSCAASGIIFAWYAMGWYRQAPGKERELVAGISQSGGRTYYADSVKGRFTISRDNAKNSVYLQMNSLKPEDTAVYYCAAQWYYSPYVSGDYWGQGTQVTVSS | high polyreactivity |
| QVQLVESGGGLVQAGGSLRLSCAASGIIFAYAMGWYRQAPAKEREMVAAISGRDGSTYYADSVKGRFTISRDNAKNTVYLQMNSLKPDDTAVYYCAKRFSDLPVEMDYWGQGTQVTVSS | low polyreactivity |
| QVQLVESGGGLVQAGGSLRLSCAASGIIFDDYAMGWYRQAPGKERELVAAISVSGGSTYYADSVKGRFTISRDNAKNTVYLQMNSLKPEDTAVYYCAARLRQPYTRGNYWGQGTQVTVSS | high polyreactivity |
| QVQLVESGGGLVQAGGSLRLSCAASGIIFDEYAMGWYRQAPGKERELVAVIDWSGGSTYYADSVKGRFTISRDNAKNTFFLQMNSLKPEDTAVYYCAAEDDSTTPEFDYWGQGTQVTVSS | low polyreactivity |
| QVQLVESGGGLVQAGGSLRLSCAASGIIFDHNAMGWYRQAPGKERELVAAISTGGGNTYYADSVKGRFTISRDNAKNTVYLQMNSLKPEDTAVYYCATEPGYSYLTSYKYVYWGQGTQVTVSS | low polyreactivity |
| QVQLVESGGGLVQAGGSLRLSCAASGIIFDRYAMGWYRQAPGKEREFVAAISRRGGSTYYADSVKGRFTISRDNAKNTVYLQMNSLKPEDTAVYYCAKEIRYSSSVSESDYWGQGTQVTVSS | high polyreactivity |
| QVQLVESGGGLVQAGGSLRLSCAASGIIFDRYAMGWYRQAPGKERELVAAITYGGGSTYYADSVKGRFTISRDNAKNTVYLQMNSLKPEDTAVYYCAAVPRSGMYYWGQGTQVTVSS | high polyreactivity |
| QVQLVESGGGLVQAGGSLRLSCAASGIIFDSNAMGWYRQAPGKERELVAAITRTATRTYYADSVKGRFTISRDQAQNTVYLQMNSLKPEDTAFYYCADRGSTPQPGVGYWGQGTQVTVSS | high polyreactivity |
| QVQLVESGGGLVQAGGSLRLSCAASGIIFDSYAMGLYRQAPGKERELVAAITSRGGRTYYADSVKRRFTISRENAKNTVYLQMNSLKPEDTAVYYCAARAIYDRRTEGTSGYDYWGPGTQVTVSS | low polyreactivity |
| QVQLVESGGGLVQAGGSLRLSCAASGIIFDTNAMGWYRQAPGKERELVASISKRGGSTYYADSVKGRFTISRDNAKNTVYLQMNSLKPEDTAVYYCNALRRRQYHDDYWGQGTQVTVSS | high polyreactivity |
| QVQLVESGGGLVQAGGSLRLSCAASGIIFDTYTMGWTRHSPGKERELVAAITRRGSRTYYADSVKGRFTISRDNAKNTVYLQMNSLKREDTAVYYCNAVPRWSYVDEDSWGQGTQVTVSS | high polyreactivity |
| QVQLVESGGGLVQAGGSLRLSCAASGIIFDVYAMGWYIQAPGKERELVAAISSGGSTYYADSVKGRFTISRDNAKNTVYLQMNSLKPEDTAVYYCATAQSVIYRYEYWGQGTQVTVSS | low polyreactivity |
| QVQLVESGGGLVQAGGSLRLSCAASGIIFDYNAMGWYRPAPGKERELVAAISGRSGRTYYADSVKGRFTISRDNAKNTVYLQMNSLKPEDTAVYYCAARWYAGGNYWGQGTQVTVSS | high polyreactivity |
| QVQLVESGGGLVQAGGSLRLSCAASGIIFDYNAMGWYRQAPGKERELVAAISGRSGRTYYADSVKGRFTISRDNAKNTVYLQMNSLKPEDTAVYYCNALRLTRDPYDYWGQGTQVTVSS | high polyreactivity |
| QVQLVESGGGLVQAGGSLRLSCAASGIIFDYNAMGWYRQAPGKERELVAAITSTDNTNYADSVKGRFTISRDNAKNTVYLQMNSLKPEDTAVYYCNTDYWLSVVYAMDYWGQGTQVTVSS | low polyreactivity |
